Measurements taken from publication PMC6191456 (Scientific Reports, 2018).

B3: ParE toxin of the parDE system from the broad host range plasmid RK2 (natural protein)
chain: MTAYILTAEAEADLRGIIRYTRREWGAAQVRRYIAKLEQGIARLAAGEGPFKDMSELFPALRMARCEHHYVFCLPRAGEPALVVAILHERMDLMTRLADRLKG
notes: also called GST-ParE

Key:
Conditions in all cases: both partners purified
[1] = target: T1, ClpA, the ATPase unit of ClpAP protease (E. coli, UniProt P0ABH9 1-758); test: SPR; BIAcore 2000; ParD or ParE immobilised on a CM5 chip, ClpA injected; HBS-EP buffer with 10 mM magnesium acetate and 2 mM ATP; flow 15 µl/min
T1 construct: ClpA, ATP-dependent unfoldase subunit of the ClpAP protease, E. coli; also called ClpA ATPase; source: purified by a published protocol [55]
T1 sequence (looked up): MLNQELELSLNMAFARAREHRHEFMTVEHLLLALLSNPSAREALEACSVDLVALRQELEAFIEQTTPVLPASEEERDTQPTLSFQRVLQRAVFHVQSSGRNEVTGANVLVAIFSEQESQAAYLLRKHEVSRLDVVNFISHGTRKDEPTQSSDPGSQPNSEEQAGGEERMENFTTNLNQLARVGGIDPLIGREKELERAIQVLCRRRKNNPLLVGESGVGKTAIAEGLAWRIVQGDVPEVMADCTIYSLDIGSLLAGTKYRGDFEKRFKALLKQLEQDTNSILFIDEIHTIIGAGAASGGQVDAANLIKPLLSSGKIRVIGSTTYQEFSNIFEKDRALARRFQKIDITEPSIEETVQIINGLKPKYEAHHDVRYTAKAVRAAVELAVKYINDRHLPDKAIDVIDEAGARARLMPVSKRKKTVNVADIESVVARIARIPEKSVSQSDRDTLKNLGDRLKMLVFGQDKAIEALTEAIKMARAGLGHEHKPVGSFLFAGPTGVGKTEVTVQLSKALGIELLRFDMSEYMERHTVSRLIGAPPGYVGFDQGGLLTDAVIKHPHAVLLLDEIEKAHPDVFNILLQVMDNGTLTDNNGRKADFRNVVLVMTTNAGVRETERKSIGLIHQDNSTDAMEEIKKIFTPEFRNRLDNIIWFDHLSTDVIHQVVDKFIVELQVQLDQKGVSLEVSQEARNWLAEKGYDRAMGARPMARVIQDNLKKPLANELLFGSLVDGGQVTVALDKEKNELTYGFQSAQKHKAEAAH

[2] = target: B3; test: SPR; BIAcore 2000; ClpA immobilised on a CM5 chip; ParD (200 nM) injected to pre-form the ClpA-ParD complex, then ParE (200 nM) injected; ParD or buffer as controls; HBS-EP buffer with 10 mM magnesium acetate and 2 mM ATP
[3] = target: T1, ClpA, the ATPase unit of ClpAP protease; test: SPR; BIAcore 2000; ClpA immobilised on a CM5 chip; mixture of ParD (200 nM) preincubated with increasing concentrations of ParE injected; HBS-EP buffer with 10 mM magnesium acetate and 2 mM ATP
[4] = target: T2, pre-formed ClpA-ParD complex (E. coli | plasmid RK2, UniProt P0ABH9;P22995); test: SPR; BIAcore 2000; ClpA immobilised on a CM5 chip; ParD (200 nM) injected to pre-form the ClpA-ParD complex, then ParE (200 nM) injected; ParD or buffer as controls; HBS-EP buffer with 10 mM magnesium acetate and 2 mM ATP
T2 construct: also called ParD-ClpA complex; source: formed on the sensor chip: purified ParD (200 nM) injected onto immobilised purified ClpA
T2 sequence 1: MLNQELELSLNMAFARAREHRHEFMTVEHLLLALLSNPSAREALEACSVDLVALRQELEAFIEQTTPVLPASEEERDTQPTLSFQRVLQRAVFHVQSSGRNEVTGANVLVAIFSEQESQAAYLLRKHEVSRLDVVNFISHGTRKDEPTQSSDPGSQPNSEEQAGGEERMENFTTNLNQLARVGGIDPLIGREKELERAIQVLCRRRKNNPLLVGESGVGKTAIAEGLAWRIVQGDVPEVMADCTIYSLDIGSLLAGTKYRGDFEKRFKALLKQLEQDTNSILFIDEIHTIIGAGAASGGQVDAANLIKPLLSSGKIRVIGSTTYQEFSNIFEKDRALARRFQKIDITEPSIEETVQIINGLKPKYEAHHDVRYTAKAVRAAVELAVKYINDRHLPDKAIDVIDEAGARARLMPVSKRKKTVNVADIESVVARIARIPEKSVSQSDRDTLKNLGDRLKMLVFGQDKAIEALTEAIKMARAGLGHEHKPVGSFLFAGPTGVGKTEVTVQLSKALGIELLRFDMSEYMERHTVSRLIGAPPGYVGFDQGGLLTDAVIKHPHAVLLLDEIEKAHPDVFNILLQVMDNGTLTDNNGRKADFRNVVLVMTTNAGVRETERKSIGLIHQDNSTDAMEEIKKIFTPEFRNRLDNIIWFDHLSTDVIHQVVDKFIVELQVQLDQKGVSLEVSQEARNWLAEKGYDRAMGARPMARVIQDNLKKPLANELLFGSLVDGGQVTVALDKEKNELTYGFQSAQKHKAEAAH
T2 sequence 2: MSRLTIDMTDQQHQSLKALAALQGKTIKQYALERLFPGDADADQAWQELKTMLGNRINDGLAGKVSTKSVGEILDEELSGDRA

B1: ParD antitoxin of the parDE system from the broad host range plasmid RK2 (natural protein, UniProt P22995 1-83, looked up)
chain: MSRLTIDMTDQQHQSLKALAALQGKTIKQYALERLFPGDADADQAWQELKTMLGNRINDGLAGKVSTKSVGEILDEELSGDRA
notes: the construct is not described for the SPR; source: purified by a published protocol [30]
B1: binds [1]; binds [2].

B2: ParD-ParE complex (preincubated ParD and ParE proteins) (complex)
chain 1: MSRLTIDMTDQQHQSLKALAALQGKTIKQYALERLFPGDADADQAWQELKTMLGNRINDGLAGKVSTKSVGEILDEELSGDRA
chain 2: MTAYILTAEAEADLRGIIRYTRREWGAAQVRRYIAKLEQGIARLAAGEGPFKDMSELFPALRMARCEHHYVFCLPRAGEPALVVAILHERMDLMTRLADRLKG
notes: the ParD2-ParE2 make-up is cited from earlier work and not measured here; also called ParD-ParE heterotetamer; ParDE complex; source: purified ParD (200 nM) preincubated with increasing concentrations of purified ParE; copies: 2 + 2
B2: binds [3].

B3: binds [4].
